In PMC4767726, “Molecular Probing of the HPV-16 E6 Protein Alpha Helix Binding Groove with Small Molecule Inhibitors” (PLoS ONE, 2016):

Assays:
[1] = target: E6AP-BAP (aa 371-440) fusion protein (UniProt Q05086)
[2] = target: MBP-E6 F2V (human papillomavirus type 16); assay: bead-based binding assay on filter plates (alkaline phosphatase luminescence); MBP-E6 held on amylose beads at indicated concentrations or 0.67 uM; E6AP-BAP added at 50 nM, 1-3 h, room temperature; 400 mM NaCl, 50 mM Tris-HCl pH 6.8, 0.1% milk, 1 mM DTT; amylose bead control subtracted
[3] = target: T1, E6AP-BAP (aa 371-440) fusion protein (UniProt Q05086 371-440); assay: cell-based or functional assay
T1 sequence (looked up): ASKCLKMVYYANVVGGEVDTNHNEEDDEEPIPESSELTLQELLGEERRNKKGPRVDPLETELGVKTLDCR

Molecule MBP-E6 R102A (natural protein) has a p53-luciferase reporter level in C33A cells transfected with HPV-16 E6 expression vector (untagged, pLXSN), EC50 in ng of DNA [1] of 172 ng and a p53 in vitro degradation, 3 h incubation, 0.25 and 1 uM MBP-E6 R102A; decrease of p53 [1] of 50%.

“E6AP-BAP (aa 371-440) fusion protein (from UniProt Q05086 371-440) (domain or fragment)” showed a percent of the wild-type binding capacity (% of wild type) [2] of 70.

With MBP-E6 R55A (natural protein) the p53 in vitro degradation by purified MBP-E6 in rabbit reticulocyte lysate, 2 h; activity against wild type [1] was 50%.

B1: MBP-HPV-16 E6 (wild-type) (natural protein, human papillomavirus type 16, UniProt P03126 1-158, looked up)
chain: MHQKRTAMFQDPQERPRKLPQLCTELQTTIHDIILECVYCKQQLLRREVYDFAFRDLCIVYRDGNPYAVCDKCLKFYSKISEYRHYCYSLYGTTLEQQYNKPLCDLLIRCINCQKPLCPEEKQRHLDKKQRFHNIRGRWTGRCMSCCRSSRTRRETQL
With B1 the “p53-luciferase reporter level in C33A cells transfected with HPV-16 E6 expression vector (untagged, pLXSN), EC50 in ng of DNA” value [3] was 32 ng.
